For experiment [1], the target named is T1, Recombinant Human DLL4 (R&D Systems Cat#1506-D4/CF) (human, UniProt Q9NR61 27-524).
T1 construct: Bought recombinant protein; also called delta-like protein 4
The experiment can be described thus: ECL (MSD multi-spot), antigen on plate, Fab 10 nM.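 Note: blank spot per well as comparator with Hit at signal to blank ratio of 4 or more.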

The target in experiment [2] is T2, rHuman P-Cadherin/Fc Chimera, CF (R&D Systems Cat#861-PC) (human, UniProt P22223 108-654).
T2 construct: Bought Fc chimera; also called CDH3; not shown: Fc of the bought chimera
The experiment can be described thus: ECL (MSD multi-spot), antigen on plate, Fab 10 nM.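 Note: blank spot per well as comparator with Hit at signal to blank ratio of 4 or more.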

Experiment [3] addresses T3, rHuman Notch-1/Fc Chimera, CF (R&D Systems Cat#3647-TK) (human, UniProt P46531 19-526).
T3 construct: Bought Fc chimera; not shown: Fc of the bought chimera
As to the kind of experiment: ECL (MSD multi-spot), antigen on plate, Fab 10 nM.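 Note: blank spot per well as comparator with Hit at signal to blank ratio of 4 or more.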

Experiment [4] deals with T4, rHuman EGF R/Fc Chimera, CF (R&D Systems Cat#344-ER) (human, UniProt P00533 25-645).
T4 construct: Bought Fc chimera; also called ErbB-1; not shown: Fc of the bought chimera
The experiment can be described thus: ECL (MSD multi-spot), antigen on plate, Fab 10 nM.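 Note: blank spot per well as comparator with Hit at signal to blank ratio of 4 or more.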

The target in experiment [5] is T5, rHuman IGF-1 sR (insulin-like growth factor-1 soluble receptor), CF (R&D Systems Cat#391-GR) (human, UniProt P08069 31-932).
T5 construct: Bought soluble receptor; also called IGF-R1
The experiment can be described thus: ECL (MSD multi-spot), antigen on plate, Fab 10 nM.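 Note: blank spot per well as comparator with Hit at signal to blank ratio of 4 or more.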

In experiment [6] the target is T6, rHuman HGF R/c-MET/Fc Chimera, CF (R&D Systems Cat#358-MT/CF) (human, UniProt P08581 25-932).
T6 construct: Bought Fc chimera; also called HGF R/Fc; not shown: Fc of the bought chimera
The experiment can be described thus: ECL (MSD multi-spot), antigen on plate, Fab 10 nM.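 Note: blank spot per well as comparator with Hit at signal to blank ratio of 4 or more.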

Experiment [7] deals with T7, rHuman CD44/Fc Chimera, CF (R&D Systems Cat#3660-CD) (human, UniProt P16070 21-220).
T7 construct: Bought Fc chimera; not shown: Fc of the bought chimera
The experiment can be described thus: ECL (MSD multi-spot), antigen on plate, Fab 10 nM.

Experiment [8] deals with T8, rHuman ErbB2/Fc Chimera, CF (R&D Systems Cat#1129-ER) (human, UniProt P04626 23-652).
T8 construct: Bought Fc chimera; also called HER2/neu; not shown: Fc of the bought chimera
The experiment can be described thus: ECL (MSD multi-spot), antigen on plate, Fab 10 nM.

For experiment [9], the target named is T9, rHuman Erythropoietin R/Fc Chimera, CF (R&D Systems Cat#963-ER) (human, UniProt P19235 25-250).
T9 construct: Bought Fc chimera; also called EPO R/Fc; Epo R; not shown: Fc of the bought chimera
T9 sequence: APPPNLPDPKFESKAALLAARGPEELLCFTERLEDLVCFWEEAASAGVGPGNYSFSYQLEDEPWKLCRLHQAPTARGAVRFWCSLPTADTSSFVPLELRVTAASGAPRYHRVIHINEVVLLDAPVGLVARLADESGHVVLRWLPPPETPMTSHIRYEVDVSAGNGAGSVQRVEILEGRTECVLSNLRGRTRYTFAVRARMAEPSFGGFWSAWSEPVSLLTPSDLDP
The experiment can be described thus: ECL (MSD multi-spot), antigen on plate, Fab 10 nM.

In experiment [10] the target is T10, rHuman CD44/Fc Chimera, CF (R&D Systems Cat#3660-CD) (human, UniProt P16070 21-220).
T10 construct: Purchased Fc chimera; not shown: Fc portion of the purchased chimera
The experiment can be described thus: MSD ECL multi-spot plate, antigen immobilized; Fab 200 nM; blank spot 529.

Experiment [11] concerns the target T11, rHuman HGF R/c-MET/Fc Chimera, CF (R&D Systems Cat#358-MT/CF) (human, UniProt P08581 25-932).
T11 construct: Purchased Fc chimera; also called HGF R/Fc; not shown: Fc portion of the purchased chimera
The description is as above.

In experiment [12] the target is T12, Recombinant Human DLL4 (R&D Systems Cat#1506-D4/CF) (human, UniProt Q9NR61 27-524).
T12 construct: Purchased recombinant protein; also called delta-like protein 4
The description is as above.

The target in experiment [13] is T13, rHuman P-Cadherin/Fc Chimera, CF (R&D Systems Cat#861-PC) (human, UniProt P22223 108-654).
T13 construct: Purchased Fc chimera; not shown: Fc portion of the purchased chimera
Described as above.

Experiment [14] has as its target T14, rHuman ErbB2/Fc Chimera, CF (R&D Systems Cat#1129-ER) (human, UniProt P04626 23-652).
T14 construct: Purchased Fc chimera; also called HER2/neu; not shown: Fc portion of the purchased chimera
The description is as above.

The target in experiment [15] is T15, rHuman EGF R/Fc Chimera, CF (R&D Systems Cat#344-ER) (human, UniProt P00533 25-645).
T15 construct: Purchased Fc chimera; not shown: Fc portion of the purchased chimera
Described as above.

In experiment [16] the target is T10, rHuman CD44/Fc Chimera, CF (R&D Systems …). As to the kind of experiment: MSD ECL multi-spot plate, antigen immobilized; Fab 1.6 nM; blank spot 449.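 Note: blank spot per well as comparator with Hit at signal to blank ratio of 4 or more.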
Experiment [17] addresses T11, rHuman HGF R/c-MET/Fc Chimera, CF (R&D …). Described as above.
Experiment [18] concerns the target T16, rHuman Notch-1/Fc Chimera, CF (R&D Systems Cat#3647-TK) (human, UniProt P46531 19-526).
T16 construct: Purchased Fc chimera; not shown: Fc portion of the purchased chimera
The experiment is described as above.

Experiment [19] has as its target T17, rHuman Erythropoietin R/Fc Chimera, CF (R&D Systems Cat#963-ER) (human, UniProt P19235 25-250).
T17 construct: Purchased Fc chimera; also called EPO R/Fc; Epo R; not shown: Fc portion of the purchased chimera
T17 sequence: T9 sequence
The experiment is described as above.

Data on two molecules can be found in patent US20120058906A1 (published 2012).

B1: Fab VH1-46_IGHD6-6*01_IGHJ1*01_S102A_S103P_S104F & L6_IGKJ1*01_S28P (Fab, V domains shown)
VH: QVQLVQSGAEVKKPGASVKVSCKASGYTFTSYYMHWVRQAPGQGLEWMGIINPSGGSTSYAQKFQGRVTMTRDTSTSTVYMELSSLRSEDTAVYYCAREEYAPFSAEYFQHWGQGTLVTVSS
VL: EIVLTQSPATLSLSPGERATLSCRASQPVSSYLAWYQQKPGQAPRLLIYDASNRATGIPARFSGSGSGTDFTLTISSLEPEDFAVYYCQQRSNWPPWTFGQGTKVEIKR
notes: Fab
Turning to B1, the ECL signal in [1] was 26900 ECL signal; in [2] it was 216 ECL signal; in [3], 280 ECL signal; in experiment [4], 207 ECL signal; in [5] it was 152 ECL signal; in experiment [6] it was 136 ECL signal. In addition, the results for the ECL signal in [7], in experiment [8] and in [9] were 212 ECL signal, 136 ECL signal and 392 ECL signal, respectively.

B2: Fab VH5-51_IGHD5-18*01>3_IGHJ4*01_G100R & V3-4_IGLJ1*01 (Fab, V domains shown)
VH: EVQLVQSGAEVKKPGESLKISCKGSGYSFTSYWIGWVRQMPGKGLEWMGIIYPGDSDTRYSPSFQGQVTISADKSISTAYLQWSSLKASDTAMYYCARRRYSYGYDYFDYWGQGTLVTVSS
VL: QTVVTQEPSFSVSPGGTVTLTCGLSSGSVSTSYYPSWYQQTPGQAPRTLIYSTNTRSSGVPDRFSGSILGNKAALTITGAQADDESDYYCVLYMGSGISYVFGTGTKVTVL
notes: It was expressed as a Fab: CH1 with tags from Plasmid A and lambda CL from Plasmid E; also called Fab No. 23
For the molecule B2, the ECL signal in experiment [10] is 895 ECL signal; in experiment [11] it was 1160 ECL signal; in [12], 29800 ECL signal; in experiment [13], 815 ECL signal; in [14] it was 1450 ECL signal; in experiment [15] it was 1020 ECL signal. Also, the ECL signal was found to be 997 ECL signal in [16], 1210 ECL signal in experiment [17], 1050 ECL signal in experiment [18] and 920 ECL signal in experiment [19].
